The text below walks through data of PMC5096884.

This experiment addresses Not1-3HA (UniProt P25655). Nature of the experiment: co-immunoprecipitation (TAP pull-down on IgG-coupled magnetic beads), Western blot quantification. The note with it: cells in exponential growth phase; n=5 biological replicates; parent: est. 1.0; read off a plot. In general terms: Immunoblotting shows a protein as a band on a membrane.
Sequence of UniProt P25655 (P25655 whole entry): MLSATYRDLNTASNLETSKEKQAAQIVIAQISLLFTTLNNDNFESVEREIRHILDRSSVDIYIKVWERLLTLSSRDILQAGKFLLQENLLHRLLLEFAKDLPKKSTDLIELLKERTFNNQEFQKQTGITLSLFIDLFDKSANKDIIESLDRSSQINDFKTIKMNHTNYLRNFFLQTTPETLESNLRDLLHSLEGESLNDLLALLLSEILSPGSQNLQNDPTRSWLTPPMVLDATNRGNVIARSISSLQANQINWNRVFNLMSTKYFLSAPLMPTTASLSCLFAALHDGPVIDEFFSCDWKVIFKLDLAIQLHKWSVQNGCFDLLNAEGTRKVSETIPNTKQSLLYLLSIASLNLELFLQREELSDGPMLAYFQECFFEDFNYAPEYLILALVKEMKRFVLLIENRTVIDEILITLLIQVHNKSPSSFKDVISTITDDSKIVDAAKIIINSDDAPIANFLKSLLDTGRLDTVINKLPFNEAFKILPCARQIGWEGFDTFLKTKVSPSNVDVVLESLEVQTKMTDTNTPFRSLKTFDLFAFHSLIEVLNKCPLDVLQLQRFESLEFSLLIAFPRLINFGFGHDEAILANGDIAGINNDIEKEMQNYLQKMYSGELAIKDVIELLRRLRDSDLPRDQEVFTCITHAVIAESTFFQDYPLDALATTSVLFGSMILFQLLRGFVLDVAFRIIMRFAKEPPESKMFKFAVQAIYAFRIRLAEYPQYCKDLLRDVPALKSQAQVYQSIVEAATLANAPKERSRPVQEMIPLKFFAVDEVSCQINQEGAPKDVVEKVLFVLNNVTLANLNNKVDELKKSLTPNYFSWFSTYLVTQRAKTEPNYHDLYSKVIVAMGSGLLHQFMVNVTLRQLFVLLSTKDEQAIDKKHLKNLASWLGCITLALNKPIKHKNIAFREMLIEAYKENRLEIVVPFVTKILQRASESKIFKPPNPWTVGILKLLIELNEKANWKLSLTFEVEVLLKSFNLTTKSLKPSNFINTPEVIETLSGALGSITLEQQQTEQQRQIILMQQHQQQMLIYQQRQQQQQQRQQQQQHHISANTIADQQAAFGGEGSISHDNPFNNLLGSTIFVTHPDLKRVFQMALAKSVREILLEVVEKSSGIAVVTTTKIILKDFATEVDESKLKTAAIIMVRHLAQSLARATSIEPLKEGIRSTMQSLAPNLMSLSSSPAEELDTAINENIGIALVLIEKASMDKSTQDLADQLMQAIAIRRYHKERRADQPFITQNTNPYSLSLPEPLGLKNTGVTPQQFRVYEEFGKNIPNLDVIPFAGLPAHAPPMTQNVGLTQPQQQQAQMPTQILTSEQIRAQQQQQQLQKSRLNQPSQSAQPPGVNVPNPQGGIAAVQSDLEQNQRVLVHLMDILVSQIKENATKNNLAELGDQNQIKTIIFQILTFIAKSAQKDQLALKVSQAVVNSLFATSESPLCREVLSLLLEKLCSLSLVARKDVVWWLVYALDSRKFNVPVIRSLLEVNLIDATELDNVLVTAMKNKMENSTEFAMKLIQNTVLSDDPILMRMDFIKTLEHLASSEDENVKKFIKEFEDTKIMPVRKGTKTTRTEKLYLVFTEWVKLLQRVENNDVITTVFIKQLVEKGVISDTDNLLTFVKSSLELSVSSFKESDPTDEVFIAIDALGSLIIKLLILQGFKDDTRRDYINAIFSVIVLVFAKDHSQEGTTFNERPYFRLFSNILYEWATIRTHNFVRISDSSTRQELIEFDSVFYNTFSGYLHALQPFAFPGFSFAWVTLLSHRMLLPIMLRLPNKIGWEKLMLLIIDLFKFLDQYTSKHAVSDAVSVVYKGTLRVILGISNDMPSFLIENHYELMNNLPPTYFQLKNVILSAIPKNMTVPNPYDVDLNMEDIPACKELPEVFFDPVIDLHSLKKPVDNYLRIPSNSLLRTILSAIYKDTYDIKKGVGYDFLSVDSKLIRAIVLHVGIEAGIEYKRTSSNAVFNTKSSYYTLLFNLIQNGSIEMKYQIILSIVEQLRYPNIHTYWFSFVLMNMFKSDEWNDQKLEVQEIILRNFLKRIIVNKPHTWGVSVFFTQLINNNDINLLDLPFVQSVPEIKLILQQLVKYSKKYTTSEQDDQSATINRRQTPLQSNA

With “TAP-tagged Dhh1 (from UniProt P39517) R55E; F62E; Q282E; N284E; R355E”, the ratio to parent was determined as 0.44.
